T1: myostatin (UniProt O14793 267-375, limits assumed)
T1 sequence (looked up): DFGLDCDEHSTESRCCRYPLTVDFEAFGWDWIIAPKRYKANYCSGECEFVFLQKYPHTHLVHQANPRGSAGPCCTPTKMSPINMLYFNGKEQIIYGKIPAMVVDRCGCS

T2: GDF-11 (UniProt O95390 299-407)
T2 sequence (looked up): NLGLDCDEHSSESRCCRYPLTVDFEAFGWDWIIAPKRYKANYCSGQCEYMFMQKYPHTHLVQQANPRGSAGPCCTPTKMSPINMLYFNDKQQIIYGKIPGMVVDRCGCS

T3: activin A (UniProt P08476 311-426)
T3 sequence (looked up): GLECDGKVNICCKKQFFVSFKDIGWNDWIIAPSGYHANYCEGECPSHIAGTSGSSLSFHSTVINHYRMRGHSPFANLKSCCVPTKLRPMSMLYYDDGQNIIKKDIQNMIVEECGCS

B1: huActRIIB5/Fc (Fc fusion)
chain: SGRGEAETRECIYYNANWELERTNQSGLERCEGEQDKRLHCYASWRNSSGTIELVKKGCWLDDFNCYDRQECVATEENPQVYFCCCEGNFCNERFTHLPEAGGPEGPWASTTIPSGGPEATAAAGDQGSGALWLCLEGPAHEGGGGGGGG
notes: also called human activin type IIB5 receptor Fc fusion; not shown: human IgG1 Fc
B2: huActRIIB-ECD/Fc (Fc fusion)
chain: SGRGEAETRECIYYNANWELERTNQSGLERCEGEQDKRLHCYASWRNSSGTIELVKKGCWLDDFNCYDRQECVATEENPQVYFCCCEGNFCNERFTHLPEAGGPEV
notes: not shown: human IgG1 Fc, fused directly (no linker)

Legend:
myostatin [1] = biological target: T1, myostatin; test: cell-based or functional assay
GDF-11 = biological target: T2, GDF-11; test: cell-based or functional assay
activin A = biological target: T3, activin A; test: cell-based or functional assay
myostatin [2] = biological target: T1, myostatin; test: BIAcore solution competition: soluble receptor titrated against 4 nM myostatin, free myostatin captured on immobilized human ActRIIB-ECD/Fc (R&D Systems) on a CM5 chip
Protocol: Blocking assays were carried out using immobilized human ActRIIB-ECD/Fc (R&D Systems, Minneapolis, Mn.) on a CM5 chip (Biacore, Inc., Piscataway, N.J.) in the presence and absence of each of the two soluble receptors ActRIIB-ECD/Fc and ActRIIB5/Fc using the BIAcore® assay system according to the manufacturer's instructions.
100% myostatin binding signal was determined in the absence of receptor in solution. Various concentrations of the soluble receptors were diluted in sample buffer and incubated with 4 nM myostatin before being injected over the receptor surface. Since only free myostatin molecules were able to bind to the chip, a decreased binding response with increasing concentration of the receptors indicated binding of the receptors to myostatin in solution. Plotting the binding signal vs. concentration of soluble receptor, ActRIIB-ECD/Fc and ActRIIB5/Fc were calculated to have an EC₅₀ of approximately 18 nM and 7 nM respectively.

Binder | myostatin-neutralizing activity IC50 (nM) vs. 4 nM myostatin; pMARE-luc C2C12 luciferase reporter (myostatin [1]) [nM] | GDF-11-neutralizing activity IC50 (nM) vs. 4 nM GDF-11; pMARE-luc C2C12 luciferase reporter (GDF-11) [nM] | activin A neutralizing activity IC50 (nM) vs. 20 nM activin; pMARE-luc C2C12 luciferase reporter (activin A) [nM] | EC50 (myostatin [2]) [nM]
B1 | 29.7 | 90.6 | 156 | ~7
B2 | 51.1 | 89.9 | 340 | ~18

Reference: patent US20140088008A1 (Amgen, published 2014)
